Experiments:
[1] = biological target: Gammanorm 165 mg/ml (Octapharma), human polyclonal IgG (human); test: column breakthrough, ligand on agarose base matrix A, ligand density 14.5 mg/ml, residence time 10.0 min, 1 mg/ml IgG
[2] = biological target: Gammanorm 165 mg/ml (Octapharma), human polyclonal IgG (human); test: column breakthrough, ligand on agarose base matrix B, ligand density 11.3 mg/ml, residence time 6.0 min, 1 mg/ml IgG
[3] = biological target: Gammanorm 165 mg/ml (Octapharma), human polyclonal IgG (human); test: column breakthrough, ligand on agarose base matrix B, ligand density 11.3 mg/ml, residence time 2.4 min, 1 mg/ml IgG
[4] = biological target: Gammanorm 165 mg/ml (Octapharma), human polyclonal IgG (human); test: column breakthrough, ligand on agarose base matrix A, ligand density […], residence time 2.4 min, 1 mg/ml IgG
[5] = biological target: Gammanorm 165 mg/ml (Octapharma), human polyclonal IgG (human); test: column breakthrough, ligand on agarose base matrix A, ligand density 14.5 mg/ml, residence time 6.0 min, 1 mg/ml IgG
[6] = biological target: Gammanorm 165 mg/ml (Octapharma), human polyclonal IgG (human); test: column breakthrough, ligand on agarose base matrix A, ligand density […], residence time 10.0 min, 1 mg/ml IgG
[7] = biological target: Gammanorm 165 mg/ml (Octapharma), human polyclonal IgG (human); test: column breakthrough, ligand on agarose base matrix A, ligand density 14.5 mg/ml, residence time 2.4 min, 1 mg/ml IgG
[8] = biological target: Gammanorm 165 mg/ml (Octapharma), human polyclonal IgG (human); test: column breakthrough, ligand on agarose base matrix A, ligand density […], residence time 6.0 min, 1 mg/ml IgG

Mutant Z(N23T)6: ligand hexamer containing six copies of protein Z, each containing the N23T substitution (designed binder)
Qb10 (dynamic binding capacity at 10% breakthrough) [1]: 76.7 mg/ml resin
Qb80 (dynamic binding capacity at 80% breakthrough) [1]: 103 mg/ml resin
Qb10 (dynamic binding capacity at 10% breakthrough) [2]: 68 mg/ml resin
Qb80 (dynamic binding capacity at 80% breakthrough) [2]: 82.8 mg/ml resin
Qb10 (dynamic binding capacity at 10% breakthrough) [3]: 47 mg/ml resin
Qb80 (dynamic binding capacity at 80% breakthrough) [3]: 76.9 mg/ml resin
Qb10 (dynamic binding capacity at 10% breakthrough) [4]: 35.1 mg/ml resin
Qb80 (dynamic binding capacity at 80% breakthrough) [4]: 62.7 mg/ml resin
Qb10 (dynamic binding capacity at 10% breakthrough) [5]: 61.8 mg/ml resin
Qb80 (dynamic binding capacity at 80% breakthrough) [5]: 103 mg/ml resin
Qb10 (dynamic binding capacity at 10% breakthrough) [6]: 64.5 mg/ml resin
Qb80 (dynamic binding capacity at 80% breakthrough) [6]: 74.5 mg/ml resin
Qb10 (dynamic binding capacity at 10% breakthrough) [7]: 31.2 mg/ml resin
Qb80 (dynamic binding capacity at 80% breakthrough) [7]: 80.6 mg/ml resin
Qb10 (dynamic binding capacity at 10% breakthrough) [8]: 53.4 mg/ml resin
Qb80 (dynamic binding capacity at 80% breakthrough) [8]: 68.7 mg/ml resin
